Reference: US20220009987A9, “HUMAN RESISTIN COMPOSITIONS AND METHODS OF TREATING TLR4-MEDIATED DISEASE AND INFECTION” (THE REGENTS OF THE UNIVERSITY OF CALIFORNIA, priority 2017, published 2022)
Entries after “also recorded” stand apart in the source; their conditions may differ.

What was measured:
CD14+CD11b+ monocytes = experiment: Competitive resistin/LPS binding assay on human PBMCs (flow cytometry); type: cell-based; conditions: for LPS binding to CD14+CD11b+ monocytes: pre-incubation before LPS-biotin, on ice
Procedure: Human PBMCs. Human buffy coat was purchased from Zen-bio. Buffy coat was overlaid on top of Histopaque-1077 and spun at 700g at 25° C. with no brake and PBMCs were recovered from the interphase. PBMCs were plated in 96-well plates and stimulated with mammalian-derived human resistin (1 μg/mL, LifeSpan Biosciences) or hRetn N-peptide (1 μg/mL). After 24 hours, ultrapure LPS (100 ng/mL, Invivogen) was added and supernatants recovered for ELISA at 24 hours. Where indicated, cells were incubated for 4 hours with STAT3 (5, 15-DPP, 50 μM) or TBK1 (BX-795, 1 μM) inhibitors prior to hRetn treatment. For the hRetn competitive binding assay, 1×10^6 cells were incubated with recombinant hRetn (0.5 μg), washed in PBS then incubated with 0.5 μg LPS-biotin (incubations were 30 minutes on ice). Cells were washed in FACS buffer, treated with Fc block, and stained with BV605-conjugated streptavidin and α-human primary antibodies: CD14 (clone M5E2), CD11 b (clone M1/70) and MD2/TLR4 (clone HTA125) purchased from Affymetrix.

human CAP1 = human CAP1 (Homo sapiens, UniProt Q01518); experiment: Pull-down assay with His-tagged human CAP1; type: binding; conditions: nickel-NTA agarose beads, anti-hRetn blot
human CAP1, sequence (Q01518 whole entry): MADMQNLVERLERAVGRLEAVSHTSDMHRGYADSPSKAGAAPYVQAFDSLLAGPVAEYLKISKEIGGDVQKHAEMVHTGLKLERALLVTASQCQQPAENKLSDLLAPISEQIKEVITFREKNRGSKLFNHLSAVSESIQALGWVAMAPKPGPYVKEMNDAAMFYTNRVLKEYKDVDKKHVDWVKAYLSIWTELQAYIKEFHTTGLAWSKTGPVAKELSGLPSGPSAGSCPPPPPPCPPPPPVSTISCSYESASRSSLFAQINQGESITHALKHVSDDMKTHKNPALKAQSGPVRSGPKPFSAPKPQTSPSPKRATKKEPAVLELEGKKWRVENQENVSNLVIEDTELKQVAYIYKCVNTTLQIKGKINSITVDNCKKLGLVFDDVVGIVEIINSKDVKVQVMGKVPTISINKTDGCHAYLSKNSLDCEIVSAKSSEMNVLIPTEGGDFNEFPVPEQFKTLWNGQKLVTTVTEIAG
Procedure: Pull-down Assay. 1 μg/ml protein His-tagged MBP, human TLR4 and human CAP1 were added to nickel-nitrilotriacetic acid-agarose beads (Invitrogen) in binding buffer (50 mM NaH2PO4, 500 mM NaCl, 10 mM Imidazole, pH 8.0) and mixed for 1 hour at 4° C., followed by washing and 1 h incubation at 4° C. with hRetn (E. coli-derived, Peprotech or 293T cell-derived, LifeSpan Biosciences) in binding buffer. Beads were washed in wash buffer (50 mM NaH2PO4, 500 mM NaCl, 20 mM Imidazole, pH 8.0), and complex protein eluted with elution buffer (50 mM NaH2PO4, 500 mM NaCl, 250 mM Imidazole, pH 6.0). His-MBP, His-TLR4 and His-CAP1 were detected by anti-His antibody (Abcam), and hRetn was detected by anti-hRetn antibody (donated by Mitchell Lazar) by Western Blot. For the N-peptide binding experiment, 1 μg/ml His-tagged human TLR4 with 500 ng/ml N-peptide or 10% TFE control was added to the beads in binding buffer and mixed for 30 min at 4° C., followed by co-immunoprecipitation using 1 μg/ml Flag-hRetn (LifeSpan Biosciences), anti-His or anti-Flag (Sigma).

C57BL/6 mice = experiment: LPS-induced endotoxic shock model with recombinant hRetn treatment; type: in vivo, mouse; conditions: for survival after LPS injection: 0.5 μg hRetn i.p. prior to LPS, vs PBS control
Excerpt: Mice. Human resistin transgenic mice were generated on a mouse Retn−/− background as previously described in Park et al., 2011, “Inflammatory induction of human resistin causes insulin resistance in endotoxemic mice,” Diabetes 60(3):775-783, the entire content of which is herein incorporated by reference. Briefly, the human resistin gene, along with 21,300 bp upstream and 4,248 bp downstream of the human resistin start site were inserted through a bacterial artificial chromosome (BAC). Genome insertion of hRETN in the two transgenic mouse lines was determined by Dartmouse™, which sequences and analyzes thousands of SNPs throughout the mouse genome. For the endotoxic shock model, mice were injected i.p. with two doses of LPS (Sigma): 0.05 mg/kg LPS followed by 12 mg/kg LPS (females) or 20 mg/kg LPS (males) 12 hours later. Mice were monitored at least twice a day and euthanized according to humane endpoints. For treatment with recombinant resistin, C57BL/6 mice were injected i.p. with PBS or 0.5 μg hRetn (Peprotech). Nippostrongylus brasiliensis life cycle was maintained in Sprague-Dawley rats, as previously described in Jang et al., 2015, “Macrophage-derived human resistin is induced in multiple helminth infections and promotes inflammatory monocytes and increased parasite burden,” PLoS Pathog 11(1):e1004579, the entire content of which is herein incorporated by reference. Mice were anesthetized with isoflurane and injected subcutaneously with 500 L3 larvae. Serum collection was by retro-orbital bleeding and body temperature was measured by rectal thermometer (Braintree Scientific). All animals in the experiment were age-matched (6-8 week old), gender-matched and housed in a specific pathogen free facility.
Vascular Permeability Assay. Evan's blue dye was used to measure vascular permeability. Mice were anesthetized by isoflurane and 200 μL of 0.5% Evan's Blue dye in PBS was injected reto-orbitally. After 10 minutes, mice were euthanized by CO2 and perfused with 20 mL PBS. Tissue was excised, weighed and incubated with 500 μL N, N-dimethylformamide (Sigma) for 24 hours at 55° C. Extracted Evan's blue was measured at 610 nm according to a standard curve.
Binding Assay and Flow Cytometry. Single cell suspension of lung tissue was prepared and hRetn binding was measured as previously described in Jang et al., 2015, supra. Briefly, dissociated lung cells were incubated for 1 hour at 4° C. with 0.5 μg recombinant hResistin (Peprotech) or PBS, followed by 2× wash in FACS buffer, incubation with Fc block (5 μg/mL αCD16/32 and 10 μg/mL purified rat IgG1, 5 min at 4° C.). Cells were stained with biotinylated α-hRetn (Peprotech, 30 min at 4° C.) followed by detection with BV605-conjugated streptavidin (BD) and surface marker antibodies. To collect peritoneal exudate cells (PECs), the peritoneal cavity was washed and PECs recovered in 5 mL ice cold PBS. Surface marker antibodies were: F4/80 (clone A3-1), SiglecF (clone E50-2440), CD4 (clone RM4-5), Ly6C (HK1.4), CD11b (clone M1/70), CD11c (clone N418), Ly6G (clone 1A8), MHCII (clone M5/114.15.2) and CD3e (clone 145-2C11), CD115 (clone AFS98), purchased from Affymetrix, BD Biosciences or Biolegend. Cell populations were determined as follows: peritoneal macrophage (F4/80+CD11b+), neutrophils (Ly6G+CD11b+), eosinophils (SiglecF+CD11c−) and monocyte (Ly6C+CD11b+), alveolar macrophages (F4/80+CD11c+). For flow cytometric analysis, all samples were run on the BD LSRII and analyzed on FlowJo (v10).
Cytokine Quantification. Sandwich ELISAs were performed using capture and biotinylated antibodies for human resistin (Peprotech), IL-10 and TNFα (BD Biosciences) according to manufacturer's instructions. Detection was performed with streptavidin-peroxidase (Jackson ImmunoResearch) and TMB peroxidase substrate (BD Biosciences), followed by addition of 2N H2SO4. Optical density (OD) was captured at 450 nm. Samples were compared to serial-fold dilution of recombinant protein. […]

[1] = peritoneal exudate cells, flow cytometry

B1: hRetn: human resistin protein (hRetn) having an amino acid sequence of SEQ ID NO: 1; recombinant, E. coli-derived or 293T cell-derived (protein, listed as Homo sapiens)
chain: MKALCLLLLPVLGLLVSSKTLCSMEEAINERIQEVAGSLIFRAISSIGLECQSVTSRGDLATCPRGFAVTGCTCGSACGSWDVRAETTCHCQCAGMDWTGARCCRVQP
CD14+CD11b+ monocytes; flow cytometry
  cell population binding hRetn in human PBMC: CD11b+CD14+ monocytes were the dominant population that bound hRetn
CD14+CD11b+ monocytes; human PBMC, flow cytometry
  LPS-promoted surface MD2/TLR4 complex formation: abrogated
CD14+CD11b+ monocytes
  LPS binding to CD14+CD11b+ monocytes: significantly abrogated
CD14+CD11b+ monocytes; listed as full-length hRetn
  LPS binding to CD14+CD11b+ monocytes: inhibited LPS binding
Human CAP1
  hRetn in pull-down elution with his-CAP1 (Western blot): not his-CAP1
C57BL/6 mice; listed as recombinant hRetn
  survival after LPS injection: protected C57BL/6 mice against LPS-induced mortality; also recorded: resistant to LPS-induced mortality
C57BL/6 mice; listed as recombinant hRetn protein
  survival after LPS injection: protected against an otherwise lethal dose of LPS
C57BL/6 mice; 6 hours after LPS
  IFNγ level: significant reduction
  IL-6 level: significant reduction
  IL-10 expression: no change
  TNFα level: significant reduction
  lung vascular permeability (Evan's blue dye): significantly reduced LPS-induced vascular permeability
  rectal body temperature (LPS-induced temperature drop): modest protection from the LPS-induced temperature drop
C57BL/6 mice; [1]
  LPS-induced neutrophils in the peritoneal cavity: significantly reduced LPS-induced neutrophils in the peritoneal cavity
  monocytes in the peritoneal cavity: increased monocytes
